Test results published in US20170283486A1.

Key:
[1] = target: single-chain gp120BaL-sCD4 complex (FLSC) (HIV-1 isolate BaL) (UniProt P01730); test: SPR, mAb immobilised, 1:1 Langmuir
[2] = target: monomeric full length gp120 of BaL isolate (HIV-1 isolate BaL); test: SPR, mAb immobilised, 1:1 Langmuir
[3] = target: single-chain gp120BaL-sCD4 complex (FLSC) (HIV-1 isolate BaL) (UniProt P01730); test: isothermal titration calorimetry, A32 IgG

Row | Substance | Kd [1] | fold change of KD, FLSC relative to gp120BaL [1] | fold change of ka, FLSC relative to gp120BaL [1] | fold change of kd, FLSC relative to gp120BaL [1] | koff [1] | kon [1] | Kd [2] | koff [2] | kon [2] | Kd [3] | ΔH [3]
1 | mAb JR4 (antibody) | 0.18 nM | 13 fold | 2.5 fold | 5.3 fold | 0.000116 s⁻¹ | 643000 M⁻¹ s⁻¹ | 2.34 nM | 0.000611 s⁻¹ | 262000 M⁻¹ s⁻¹ | – | –
2 | mAb N60-i3 (antibody) | 0.25 nM | 8 fold | 4.9 fold | 1.6 fold | 0.000314 s⁻¹ | 1.24e+06 M⁻¹ s⁻¹ | 2.03 nM | 0.000512 s⁻¹ | 253000 M⁻¹ s⁻¹ | – | –
3 | mAb 2.2c (antibody) | 0.5 nM | 24 fold | 15.7 fold | 1.6 fold | 0.000556 s⁻¹ | 1.15e+06 M⁻¹ s⁻¹ | 12 nM | 0.000875 s⁻¹ | 73000 M⁻¹ s⁻¹ | – | –
4 | mAb A32 (antibody) | 0.23 nM | 13.9 fold | 3.2 fold | 4.3 fold | 0.000102 s⁻¹ | 443000 M⁻¹ s⁻¹ | 3.2 nM | 0.000437 s⁻¹ | 139000 M⁻¹ s⁻¹ | 11.5 nM | -3.15 kcal/mol
5 | mAb N5-i5 (antibody) | 0.29 nM | 17.3 fold | 11.5 fold | 1.5 fold | 0.000238 s⁻¹ | 825000 M⁻¹ s⁻¹ | 5.03 nM | 0.00036 s⁻¹ | 72000 M⁻¹ s⁻¹ | – | –
